This assay deals with Rubisco large subunit CbbL of Cyanobium sp. PCC 7001 (Cyanobium sp. PCC 7001). Kind of assay: cryo-EM structure; cryo-electron tomography with subtomogram averaging (emClarity) of Rubisco inside isolated native Cyanobium α-carboxysomes in TEMB buffer; 3.8 Å; all Rubiscos and the three concentric layers averaged separately.

Substance “Rubisco large subunit CbbL of Cyanobium sp. PCC 7001 (natural protein)” gave a stoichiometry N of 8.

The stoichiometry N is the number of molecules, sites or subunits per partner or assembly.

For the origin of these results see paper PMC9314367.
